Assay results published in publication PMC11742986.

Tested on: RcnR (Salmonella enterica serovar Typhimurium SL1344 (100% sequence identity to E. coli RcnR))
Experiment: fluorescence anisotropy
Settings: Ni(II), 1:1 NiII:RcnR tetramer; 10 nM DNA, 60 mM NaCl, 240 mM KCl, 10 mM HEPES pH 7.5, 25 C, anaerobic, Chelex-treated N2-purged buffers; apo-RcnR Kd 1.5e-7 M is from earlier work (ref 39)

rcnRA operator-promoter
Kd: 3.09 µM
